Experiments:
[1] = molecular target: T1, OX40 (antigen of the competitive ELISA of Example 5) (UniProt P43489 29-214); assay: competitive ELISA; competitor BMS-986178
T1 sequence (looked up): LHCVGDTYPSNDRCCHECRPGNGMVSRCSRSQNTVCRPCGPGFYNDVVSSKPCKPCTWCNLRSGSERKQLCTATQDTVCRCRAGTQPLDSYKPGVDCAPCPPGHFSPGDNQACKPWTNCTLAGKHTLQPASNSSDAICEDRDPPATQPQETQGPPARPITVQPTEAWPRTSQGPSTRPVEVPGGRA

[2] = molecular target: T1, OX40 (antigen of the competitive ELISA …); assay: competitive ELISA; competitor PF-04518600
[3] = molecular target: T1, OX40 (antigen of the competitive ELISA …); assay: competitive ELISA; competitor MEDI0562
[4] = molecular target: T1, OX40 (antigen of the competitive ELISA …); assay: competitive ELISA; competitor MOXR0916
[5] = molecular target: T2, human-derived OX40, full-length, on cells (human, UniProt P43489 29-277); assay: FACS on cells expressing human OX40 (CHOK1-hOX40)
T2 construct: whole, on cells; also called hOX40; CHOK1-hOX40
T2 sequence (looked up): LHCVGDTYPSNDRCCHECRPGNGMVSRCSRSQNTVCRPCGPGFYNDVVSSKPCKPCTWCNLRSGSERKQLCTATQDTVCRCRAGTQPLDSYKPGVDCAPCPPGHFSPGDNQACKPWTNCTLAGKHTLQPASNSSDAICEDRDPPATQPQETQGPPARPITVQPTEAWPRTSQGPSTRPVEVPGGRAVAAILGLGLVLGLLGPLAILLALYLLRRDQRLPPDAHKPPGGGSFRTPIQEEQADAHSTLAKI

B1: MAb033 (antibody, IgG1, V domains shown)
VH: QVQLQQSGAELVRPGTAVRVSCKASGYAFTNYFIEWVKQRPGQGLEWIGVINPGSGDTYYSEKFQGKATLTADKSSSTAYMQLSSLTSEDSAVYFCAREDDYSWFTYWGQGTLVTVSA
VL: DIVLTQSPASLAVSLGQRATISCRASENVDNYGISFMHWYRQKPGQPPKLLIYRASNLESGIPARFSGSGSRTDFTLTINPVETDDVATYYCQQSNKDPYTFGGGTKLEIK
Work on B1 yielded a percentage of competition [1] of 81%, a percentage of competition [2] of -7% and a percentage of competition [3] of 7%. It also gave a percentage of competition [4] of -1%.

B2: MAb034 (antibody, IgG1, V domains shown)
VH: EVQLQQSGPVLVKPGASVKMSCKASGYTFTDFYMNWMRQSHGKSLEWIGVIDPYNGNTSYNQKFKGKATLTVDKSSSTAYMELNSLTSEDSAVYYCARGNYYYYAMDYWGQGTSVTVSS
VL: DIVLTQSPASLAVSLGQRATISCRASESVSIHGTHLMYWYQQKPGQPPKLLIYAASNLESGVPARFSGSGSETDFTLNIHPVEEEDAATFFCQQSIEDPPTFGGGTKLEIK
B2 showed a percentage of competition [1] of 93%, a percentage of competition [2] of 5% and a percentage of competition [3] of 13%. It also gave a percentage of competition [4] of 0%.

B3: MAb041 (antibody, IgG1, V domains shown)
VH: EVQLVESGGGLVKPGGSLKLSCAVSGFTFSNSAMSWVRQTPEKRLEWVATITDGGDYTYYSDNVKGRFTISRDNAKNNLYLQMSHLKSEDTAMYYCVRGISYWGQGTLVTVS
VL: DIVLTQSPASLAVSLGQRATISCRASKSVSTSSDSYMHWYQQKPGQPPKLLIKYASNLESGVPVRFSGSGSGTDFTLNIHPVEEEDAATYYCQHSREFPWTFGGGTKLEIK
Binder B3 has a percentage of competition [1] of -6%, a percentage of competition [2] of -8% and a percentage of competition [3] of 2%. It also gave a percentage of competition [4] of 1%.

B4: MAb058 (antibody, IgG1, V domains shown)
VH: EVQLQQSGPVLVKPGAAVKMSCKASGYIFTDYYIHWVKLSRGESLEWIGLINPYNGGTNYNQQFTGKATLTVDKSSSTAYVELNSLTSGDSAVYYCVRRTGYFDYWGQGTTLTVSS
VL: DVVMTQTPLSLPVSLGDQASISCRSSQSLVHSNGNTYLHWYLQKPGQSPKLLIYKVSNRFSGVPDRFSGSGSGTDFTLKISRVEAEDLGVYFCSQTTHVPYTFGGGTKLEIK
For B4, the percentage of competition [1] was -4%, the percentage of competition [2] was 11% and the percentage of competition [3] was 26%. For the same binder, the percentage of competition [4] was -3%.

B5: Humab035-24 (antibody, V domains shown)
VH: QVQLVQSGAEVKKPGASVKVSCKASDYTFTDYEMHWVRQAPGQGLEWIGAIDPETGGTAYNQKFKDRVTMTADTSTSTVYMELSSLRSEDTAVYYCAKTGYQFDYWGQGTTVTVSS
VL: DIQMTQSPSSVSASVGDRVTITCKASQNVGSNVAWYQQKPGKAPKALIYSASYRYSGVPSRFSGSGSGTDFTLTISSLQPEDFATYYCQQYNSHPYTFGQGTKLEIK
B5: binds [5].

B6: MAb049 (antibody, IgG1, V domains shown)
VH: EVQLQQSGPELVKPGASVKISCKASGHTLTDYYMNWVKQSHGKSPEWIGDINPNNDGIDYNQKFRGKAILTVDKSSSSFYMELRSLTSEDSAVYYCVGFVRGYFVSWGQGTTLTVSS
VL: DIQMTQTTSSLSASLGDRVTINCRASQDISNYLNWYQQKPDGTVKLLIYYTSRLRSGVPSRFSGSGSGTDYSLTINNLDQEDFATYFCQQGNTLPWTFGGGTKLEI
In the case of B6, the percentage of competition [1] is reported as 0%, the percentage of competition [2] is reported as -2% and the percentage of competition [3] is reported as 97%. For the same binder, the percentage of competition [4] was 90%.

B7: MAb064 (antibody, IgG2c, V domains shown)
VH: QVQLKESGPGLVAPSQTLSITCSVSGFSLTNYAVSWVRQPPGKGLEWLGVMWGDGNTNYHSTLISRLSISKDNSKSQVFLKLNSLQTDDTATYYCARSSGWYFDVWGTGTTVTVSS
VL: DIQMTQTTPSLSVTLGDRVTIRCRASQDINNYLNWYQQKPDGTVKLLIYYTSESRSGVPSRFSGSGSGTDYSLTISNLEQEDIATYFCQQGYALPPAFGGGTKLEIK
B7 gave a percentage of competition [1] of 1%, a percentage of competition [2] of 4% and a percentage of competition [3] of 96%. The percentage of competition [4] was 90%.

B8: MAb035 (antibody, IgG1, V domains shown)
VH: QVQLQQSGAELVRPGASVTLSCKASDYTFTDYEMHWVYQTPVHGLEWIGAIDPETGGTAYNQKFKDKAILTADKSSNTAYMELRSLTSEDSAVYFCTKTGYQFDYWGQGTTLTVSS
VL: DIVMTQSQKFMSTSVGDRVSVTCKASQNVGSNVAWYQQKPGQSPKALIYSASYRYSGVPDRFAGSGSGTDFTLTISNVQSEDLADYFCQQYNSHPYTFGGGTKLEIK
Binder B8 has a percentage of competition [1] of 90%, a percentage of competition [2] of -5% and a percentage of competition [3] of 59%. The percentage of competition [4] was 3%.

B9: MAb047 (antibody, IgG2c, V domains shown)
VH: EVQLVESGGGLVKPGGSLKLSCAASGFTFSDYGMYWIRQAPEKGLEWVAYISNGGSSIYYADTVKGRFTVSRDNAKNTLFLQMTSLRSEDTAIYYCARGGELGFAYWGQGTLVTVSA
VL: DIQMTQSPASLSVSVGETVTITCRASENIYSNLAWYQQKQGKSPQLLVYAAINLVEGVPSRFSGSGSGTQYSLKINSLQSEDFGSYFCQHFWGLPYTFGGGTKLE
Work on B9 yielded a percentage of competition [1] of 0%, a percentage of competition [2] of -2% and a percentage of competition [3] of 97%. The percentage of competition [4] was -3%.

B10: MAb053 (antibody, IgG2c, V domains shown)
VH: QVQLKQSGPGLVQPSQSLSIICTVSGFSLSDYGVMWVRQSPGKGLEWLGVIWSGGSTDYNAAFTSRLSISRDNSKRQVIFKMNSLQAEDTAIHYCVRETMDYWGQGTSVTVS
VL: DIQMTQTTSSLSASLGDRVTISCRASQDISNYLNWYQQRPDGTVKRLIYYTSRLHSGVPSRFSGSGSGTDYSLTISSLEQEDIATYFCQQAHTLPWTFGGGTKLEIK
B10 gave a percentage of competition [1] of 2%, a percentage of competition [2] of 93% and a percentage of competition [3] of 11%. For the same binder, the percentage of competition [4] was -2%.

B11: MAb055 (antibody, IgG1, V domains shown)
VH: QVQLKQSGPGLLQPSQSLSITCTVSGFSLDEYGVHWFRQSPGKGLEWLGVIWSGGSTDYNAAFISRLSIRKDNSKSQIFFNMNSLQADDTAIYYCVREEWEYWGQGTTLTVS
VL: DIQMTQTTSSLSASLGDRVTISCRPSQDIDNYLNWFQQRPDGTIKLLIYYTSRLHSGVPSRFSGSGSGTDYSLTINNLEQEDIATYFCQQAHTLPYTFGGGTKLEIK
In the case of B11, the percentage of competition [1] is reported as 3%, the percentage of competition [2] is reported as 95% and the percentage of competition [3] is reported as 16%. The percentage of competition [4] was -3%.

Reference: US20220017629A1 (SHANGHAI PHARMAEXPLORER, published 2022)
